Test results reported in a protein production outcome set (Wang et al. 2014).

Assay: label from the status in PepcDB records
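Further: failed if final PepcDB status was selected cloned or expressed and not failed if soluble or beyond.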

MKIIVVGCGKIGYTIAKVLSEKKDIDVTVVDNNPNIFDKMVEPIDVIFISGNGANEKTLIEAGAKDADLIVSTTNADELNVLCCIMAERLGTKHSIARVRNPEYMLEFNKLWKDLGIDMVINPERQTAREISRILRYHAADDIVTFIGDRVELVSFKVSETPEYFVGKSVSQIFDNNMGILLAIVERENQALIPNGDLIFKESDIIWIMGRPSQIMKFFTLIKKGPKKGQEIMVIGGGKITHYLVELLNRHTTKANIKIIKKDRSKCESLYEALSSASLERRCLFIHGDGTNEELLIDEGIDTMDACVCLTDRDEENVFISLYAMRRGVKKVITKINYIHQNMAKSLGLWLGNIITPQYITAKTVIRYVDGLSGAVGRNIMTIHQIYSGDDGNVDAIEFQVNKKAKCIDTPIKKLKLKKGILIGCISRDFDIIIPSGETEIHIGDRVIIFSKNNDIRDLDDILEN
protein production: failed

MQMNSEKFFKLFRVGETVLVEYSGTSRAELLLYYIVNNSKLPIVVDDILDTYYEFYTRLKVAGFDVAPLENVQVIKMGGTKDIGRVIGRLNISKYVISEQEYMEIVSQLKDYPVINPVLGLHKLILLGNTFENINVVKMVSNYVGREERIAFYFVNRNVIEKHSSPILDLLEEVVTSILEITDSGIIIKKSIKDEIAGKIVSPLLNF
protein production: not failed

YDFIDNPGFDESHSLTEMREAFLSFFEDRDHERIDPYPVAANRWRDDVLLTQASIYDFQPLVTSGTTPPPANPLCISQPCIRMQDIDNVGKTGRHTMAFEMMAHHAFNAREDIEDPEQYAYEGEVYWKNETVQYCDELFEEMGANLDEIVYIEDPWVGGGNAGPAIEVIYRGAELATLVFMSMEQDSDGEYEMKDGNRYSPMDTYIVDTGYGLERWTWMSQGTPTVYEAVYPDMIAFLKDNAGIELTDEEERIVHEAAKLAGRMDI
protein production: failed

VINLKELKILHTSDWHLGVTSWTSSRPVDRREELKKALDKVVEEAEKREVDLILLTGDLLHSRNNPSVVALHDLLDYLKRMMRTAPVVVLPGNHDWKGLKLFGNFVTSISSDITFVMSFEPVDVEAKRGQKVRILPFPYPDESEALRKNEGDFRFFLESRLNKLYEEALKKEDFAIFMGHFTVEGLAGYAGIEQGREIIINRALIPSVVDYAALGHIHSFREIQKQPLTIYPGSLIRIDFGEEADEKGAVFVELKRGEPPRYERIDASPLPLKTLYYKKIDTSALKSIRDFCRNFPGYVRVVYEEDSGILPDLMGEIDNLVKIE
protein production: not failed

MDAKETSATDLKRPREEDDNGGAATMETENGDQKKEPACFSTVIPGWFSEMSPMWPGEAHSLKVEKVLFQGKSDYQDVIVFQSATYGKVLVLDGVIQLTERDECAYQEMITHLPLCSIPNPKKVLVIGGGDGGVLREVARHASIEQIDMCEIDKMVVDVSKQFFPDVAIGYEDPRVNLVIGDGVAFLKNAAEGSYDAVIVDSSDPIGPAKELFEKPFFQSVARALRPGGVVCTQAESLWLHMDIIEDIVSNCREIFKGSVNYAWTSVPTYPSGVIGFMLCSTEGPDVDFKHPLNPIDESSSKSNGPLKFYNAEIHSAAFCLPSFAKKVIESKAN
protein production: failed

MARDGGVSCLRRSEMMSVGGIGGIESAPLDLDEVHVLAVDDSLVDRIVIERLLRITSCKVTAVDSGWRALEFLGLDNEKASAEFDRLKVDLIITDYCMPGMTGYELLKKIKESSNFREVPVVIMSSENVLTRIDRCLEEGAQDFLLKPVKLADVKRLRSHLTKDVKLSNGNKRKLPEDSSSVNSSLPPPSPPLTISPESSPPLTVSTESSDSSPPLSPVEIFSTSPLSSPIDDEDDDVLTSSSEESPIRRQKMRSPGLD
protein production: failed

MKKRILSAVLVSGVTLSAAASVHAEDYDSQIAATNNAISNLASQQEAAQAQVATIQSQVSTLRTQKTELEAKNAELEKVSADLESEIQELSSKIVARQDSLAKQARSAQQNNTATSYINSILNSKSISEAITRITAISKVVTANNDLLTKQESDQKELAAKQEENQAAINTIAANKSELETTEAGLTTQQAELEAAQVTLAAELATAQNEKTSLVSAKSTAESVAASTAASVAQSQAIAESEATAQVVASSEAATSVASSEVAATSEAVAQPSETPVSETSTASEAAQEPASSETSEVQPESAAPAVSEAPASVAPVATSEAAPATSEAPASVAPVATSEAAPAVSEAPAPAAETHKVSAASTPNTYPVGQCTWGVKSLAPWAGNNWGNAKNWIASAQAAGHSVGTTPVAGAIAVWPNDGGGYGHVAYVTSASGANSIQVMESNYAGNMSISNYRGTFDPTSSAHGGSVFYIYPLEHHHHHH
protein production: not failed

MRSTKIVCTVGPRTDSYEMIEKMIDLGVNVFRINTSHGDWNEQEQKILKIKDLREKKKKPVAILIDLAGPKIRTGYLEKEFVELKEGQIFTLTTKEILGNEHIVSVNLSSLPKDVKKGDTILLSDGEIVLEVIETTDTEVKTVVKVGGKITHRRGVNVPTADLSVESITDRDREFIKLGTLHDVEFFALSFVRKPEDVLKAKEEIRKHGKEIPVISKIETKKALERLEEIIKVSDGIMVARGDLGVEIPIEEVPIVQKEIIKLSKYYSKPVIVATQILESMIENPFPTRAEVTDIANAIFDGADALLLTAETAVGKHPLEAIKVLSKVAKEAEKKLEFFRTIEYDTSDISEAISHACWQLSESLNAKLIITPTISGSTAVRVSKYNVSQPIVALTPEEKTYYRLSLVRKVIPVLAEKCSQELEFIEKGLKKVEEMGLAEKGDLVVLTSGVPGKVGTTNTIRVLKVD
protein production: not failed

MISVTAYEWIGLFIGMIIGGLAEAWGISNPEVLIRLGKWEDRLFIGCIAIAIGAGAIVLYGLSALGVSFHWGIKPDYVIGVALGGIIFGTGIAISGYVPGTVWMALGEGRRDAIYAVLGGLLGAASWTLIYQTSFGHWLTTYLNFGQIYFGGKVGTDLKLGFIIAIVWAIIMFVIAYTLPRYRKGKSCAYLSTHKNYKLDAEEEKEYIETANFLMEGTSMPIGKNNLPEKVNYHWTVSSKLFGVTMLSVGIIIGLTVVLEMFLHQIFGESTTYSWIVAQIWLPAGYWQYSTIVVHTIGWEPFSDIGTLFGAFLASIFFTRRFQAFSNVIPPSWKERFGNSQIKRAAGAFSGAYLMLLGARMADGCASGHILSGDLQMAVSSLEFFIFVVIFLLLVAHIIYRR
protein production: failed

MAVARHETGPFATVSALASQVHPVFMLPPLATSLFGGLLSGGFWPPVAVLHAGAMFFAVYTAHVKDGYVDFHVRGEDDDHPLTGAGCRMALVGAGVGFALCTAAIWLLVGPGAALLTLPTWIIGYTHAPQLDMNPVGATMGYPAGIALALLGGYYAQVTTLTPRAVGLAAVFLLLLTGIKIIDDEQDYDYDRSIQKRTVAVVLGHQRARQLALGLFGVALLGIVGLSVALPGIPPSAAAAALVFGAVAAIAQRGDPETATMLLIRGSYLLLAVLVTAVWFRPLA
protein production: failed

MPMWLQALMWGTLAGGALVLGAGIAWMWKVPPKIVSTVMAFGAGVLISALAFELVDEAVEGGGLLPTVLGFLLGALIFVGSNALLARAGAKHRKRSGGSQPSEKDSPGSGTAIAVGALIDGIPESVVLGVGLLAGGAVSPAMLAAVLISNVPEGLSSTAGMKKAGRSPAYVFGTWIGIAVFSGLAALLGYTALENAPETVIAFITAIAAGGILAMLADTMIPEAFEEHHNLTGLTAAVGFLSAFTIHHVGG
protein production: failed

MIIVTGATGKLGRRIVERLLERVPADRVGVSVRDPRKAQDLADRGVRVRQGSFDDPASLVHAFEGAEQLLLVSLDRTGQECVSGHRAAIDAAVKAGVGRILYTSQMGAAHDSRFQACRDHAQTEDLLRATGLPWTALRNGFYASSALQFLESARHTGDIALPADGPVAWTGHDDLAEATAAILAEEHRFEGPTPPLTGPAALDFDTVAEIASQTTGRPFTRTVVPDDAFREQVLAHGAPAPIGNLMLSIFAAARNGEFTAVDSTLAELIGREPATFRTQLEHAWAE
protein production: failed

MRRLPPWMLGGASTGEAAARNGSQPEAPKTKAEKRPKRVQKTKEKDLNLKSDEPKRVPRKIREEAKRSPEVIQSVTVPEDDDLTVDDLLSFANEVM
protein production: failed

MESDIEILSEADASMRKLRIFGIDDREDENGRRRIKDVEVYVPIVCGSIAFYLGKKATEYRTHKWTVYVRGATNEDLGVVIKRVIFHLHPSFNNPTRVVDAPPFALSECGWGEFKIDITVFFHTDVCEKKLELSHVLKLNPENAYGPIPKSIKIPVVAESYNEVVFPDPFESFVARVHNHPAIQISNIPDGLNLPPPGAFLF
protein production: not failed

MAFPQRKRTPSFSSSVLDSVYRSIDESDGLQSDLKGSINENVSSSSSSPSPNKKDDKLTTLRRAIMDEEHWLYARSSTTTTNSSDSSSFSSSEAESYRTKRRLRKLAEQGKRSGDERQRTKRTVMDNDSRLFSKSDDDKKPKAVKIIEELKRSKQPVSPGARLTSFLNSIFQSNAKKVKLCSVGKTTDVKSSSSKSCFSRTRNKTDNNNNNCKKLERSIRFYPVRVTIDGDCRDYAQKHITRVRKPIPEFTAKKSVKEEIKTNDHHTEFTCITRNIGLKDFVRSNKYEGKEEEEDAWSHSSSDLFELDSYRIGMGRYLKELPVYETTDFKTNQAIARSLLL
protein production: failed

MQDSLGIMIKKANNALARDSDHYAKSLGLTGMQISTINFIANNEQHHDLFQRDLELEFNIRKATCSSLVSKMEAADLLIRVPAKDDGRYKRLLLTPKARQLATKIERFFETSEQRMATILGVNTAETYEALRQIAVAFSTPTHAPENWY
protein production: failed

MFLVNNIRCSNMAEFPYTTVPGKIKPFFQKIQEAGLPSKVTQKWINSIGFTSSNDPSIIPLLKKLGFIDRSGVPTELWARYRDKDLAPKVMAEAIKNAYKELFETYPDAYRKDKEALRNFFASQTGKAENTIEKMIQTFKALCELADFESNSEEYPHNEVVPSREGLTTLMEKQTPKGLTINVNIQLQLPATTDEEVYDKLFRSLKRNLLSE
protein production: not failed

AIAFKRKTAWFSDSVEKEVISFWVSEGGDISSWKTAGYLFSDDASSEDTKRIYGSEDYVKNRATVFHSSFLLACQPRQSVTSVPIGHYVLPPDFVQNEMKAIIGRFIWEKDEQVICEEQINPEVPKDILSGETEDHALRERSSQDDYQTVTSQSKVCSCCEMRQYPVNNMISGYVHIDQMRKYSGELKDFLPSLHGHDVSRSNDPTPPFHRKAV
protein production: failed

DLSSVIKASQTLASEIKLEKLLSTLMELVIENAGAKKCVLVLLKNERLLIEAIAKINQVPISTILVSIPIAESDEIPISLINYVSHTSQTLVIDDATTEDLFISDPYIQQKEPKSLLCTPIIKQGKLMGILYLENHLTTGAFTSDRLQVINLLMAQAAISLENAQLYGQLAEYSQNLELKVEQRT
protein production: failed

MAANGVSSGACAVSEEEARSEAERLLADPRLHVSDRHRAFLRYIVDARFEGRSDTIKAYSIAIDVFKRPASFDPSSDPIVRIEATRLRESLQKYYAQLADEPGARLDIPRGRYVPVFVERDNPPCPEEDGELEDVGLPTEEPTQAASRPEGRNWRHAIMGGAALAAVSLTGSLAYLAASAAHLNTQKPFVALSINASQNDKAAGEAVMEDLAVSLARFGTVRLKSGASGSRVPSDAMEQSLYEINMRYAENESSVSLWWQVSDAANGEAVWTDEERRPVAAGSREEAMRDLVFAVSRRLARPAGIINTIELRRNLPSSTIGNVCVLRGEFAVEQRDAAGLEAARSCLAATIASDPTDADAMATLARVYVWIGRATGDDSYFGRGLELANRAATLSPSSPRAALAQLGVQYQLGQNEISIAAGRRGVALNPENADLLAKLSMVVFLTGHWDEGVQLARQATEIAGQPIRDASFVMILNDYRQERYAQAVFLARQVPAPDAPTTVLKLAAIARLGDRPVTQQEIAAARLQHPDLERTVTAMFSGARYDSNLRDALRAGILEAGLKMPELASNGAM
protein production: failed
